Values quoted from earlier work as cited in PMC4426669.

Biological target: eIF2B1 (Homo sapiens) (UniProt Q14232)

Substance: eIF2B1 (from UniProt Q14232)
- Kd: < 1 nM
